Laboratory results taken from patent publication US20210236614A1.
“And” between values parts separate entries of the source, which are not always exact repeats. Equal values may be shown once.

How the values were obtained:
Experiment in all cases: ELISA, His-PD1 on nickel plate, conjugate only control
[1] = biological target: His tagged rhesus monkey PD1 (Sino) (rhesus monkey) (UniProt B0LAJ2)
[2] = biological target: His tagged rat PD1 (Sino) (rat) (UniProt D3ZIN8)
[3] = biological target: His tagged mouse PD1 (Sino) (mouse) (UniProt Q02242)
Chain of His tagged mouse PD1 (Sino) (mouse) (Q02242 25-167 limits assumed): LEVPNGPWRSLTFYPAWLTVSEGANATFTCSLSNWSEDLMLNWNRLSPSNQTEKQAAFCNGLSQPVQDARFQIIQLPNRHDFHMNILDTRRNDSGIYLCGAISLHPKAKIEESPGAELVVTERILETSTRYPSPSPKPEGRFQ

[4] = biological target: His tagged canine PD1 (Sino) (canine)

Chain of His tagged rhesus monkey PD1 (Sino) (rhesus monkey) (B0LAJ2 entry or part of it limits assumed, form in doubt): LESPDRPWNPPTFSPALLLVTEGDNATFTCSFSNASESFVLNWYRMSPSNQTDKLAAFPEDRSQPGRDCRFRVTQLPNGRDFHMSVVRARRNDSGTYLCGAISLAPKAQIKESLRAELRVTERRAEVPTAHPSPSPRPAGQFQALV
Chain of His tagged rat PD1 (Sino) (rat) (D3ZIN8 entry or part of it limits assumed, form in doubt): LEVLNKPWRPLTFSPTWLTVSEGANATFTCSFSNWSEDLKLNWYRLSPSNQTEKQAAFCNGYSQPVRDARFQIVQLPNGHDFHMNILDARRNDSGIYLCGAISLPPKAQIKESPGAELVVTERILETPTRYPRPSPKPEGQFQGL

horseradish peroxidase-labeled anti-rabbit antibody (conjugate only control)
OD [1]: 0.063 OD and 0.058 OD | OD [2]: 0.055 OD | OD [3]: 0.066 OD and 0.064 OD | OD [4]: 0.059 OD and 0.06 OD
